# Data reported in the DeepSol protein solubility set.
# Experiment: soluble on expression in E. coli; label from the status in PepcDB or PDB records
row,Sequence,soluble on expression in E. coli
1,MGGSHHHHHHGMASALATRQRESSITSCCSTSSCDADDEGVRGTCEDASLCKRFAVSIGYWHDPYIQHFVRLSKERKAPEINRGYFARVHGVSQLIKAFLRKTECHCQIVNLGAGMDTTFWRLKDEDLLPSKYFEVDFPMIVTRKLHSIKCKPPLSSPILELHSEDTLQMDGHILDSKRYAVIGADLRDLSELEEKLKKCNMNTQLPTLLIAECVLVYMTPEQSANLLKWAANSFERAMFINYEQVNMGDRFGQIMIENLRRRQCDLAGVETCKSLESQKERLLSNGWETASAVDMMELYNRLPRAEVSRIESLEFLDEMELLEQLMRHYCLCWATKGGNELGLKEITY,not soluble
2,MPLVSMKEMLIDAKENGYAVGQYNINNLEFTQAILEASQEENAPVILGVSEGAARYMSGFYTIVKMVEGLMHDLNITIPVAIHLDHGSSFEKCKEAIDAGFTSVMIDASHSPFEENVATTKKVVEYAHEKGVSVEAELGTVGGQEDDVVADGIIYADPKECQELVEKTGIDALAPALGSVHGPYKGEPKLGFKEMEEIGLSTGLPLVLHGGTGIPTKDIQKAIPFGTAKINVNTENQIASAKAVRDVLNNDKEVYDPRKYLGPAREAIKETVKGKIKEFGTSNRAK,not soluble
3,MSLKKIGVLGMGYVGIPAAVLFADAPCFEKVLGFQRNSKSSGYKIEMLNRGESPLKGEEPGLEELIGKVVKAGKFECTPDFSRISELDAVTLAIQTPFANPKDLEPDFSALIDGIRNVGKYLKPGMLVVLESTITPGTTEGMAKQILEEESGLKAGEDFALAHAPERVMVGRLLKNIREHDRIVGGIDEASTKRAVELYSPVLTVGQVIPMSATAAEVTKTAENTFRDLQIAAINQLALYCEAMGINVYDVRTGVDSLKGEGITRAVLWPGAGVGGHCLTKDTYHLERGVKIGRGELDYPEGADSIYVLARKVNDFMPAHMYNLTVAALERLGKKMDGSKVAMLGWAFIKDSDDARNTPSEPYRDLCLKAGASVMVHDPYVVNYPGVEISDNLEEVVRNADAIVVLAGHSAYSSLKADWAKKVSAKANPVIIDGRNVIEPDEFIGKGFVYKGIGREGHHHHHH,not soluble
4,SLERSVNGKIQKADIFSVPVSFNANEVTHVDTPQEALAASLNKFGEVNLEYMENLSETGRQELLTQLENRIFYNPMMKNYEIKDRFIAGNVVAKVEWIENYLKDYPDDDASKKSLEALQKAIPEPISFELLDFNLGERWIPVSVYEEFAGYLFEAKAHIHYTESIDEFSVSFEETNANITDRYYVKGEKRGYYGNDLLKHALHNTVPDITKTVQDEEGNDIKVRDAEAIQLADAKINEIRSAFTGWLNEQLPEFKQHLADMYNRKFNCYVRPDYDGSLQSFPFLDLKGLGIPSLYDSQ,not soluble
5,SAQKEEAAVATEAASQNGEDLENLDDPEKLKELIELPPFEIVTGERLPANFFKFQFRNVEYSSGRNKTFLCYVVEAQGKGGQVQASRGYLEDEHAAAHAEEAFFNTILPAFDPALRYNVTWYVSSSPCAACADRIIKTLSKTKNLRLLILVGRLFMWEEPEIQAALKKLKEAGCKLRIMKPQDFEYVWQNFVEQEEGESKAFQPWEDIQENFLYYEEKLADILK,soluble
6,MLVTKKEISVANIGEELWRFSNSSYTTGSPWTETQFAEDFAQENSEYLFLVENGQWLGYIAYHFILDEAEISHVVVNGQKQHQGIGCQLMKAFKEYVKSRDITQIFLEVRESNILAQKLYEKTGFRKVAVRKNYYKEPQENAFVMCAKLRKEAQ,not soluble
7,MSLTSTAFAPRSLAPARITAVRVAPLLGESPQGGWSHEIKADDSVHALIALHTDAGISGYGSVFTNGALVQAAADVLTPLLLGENALEPDRIAEKLHQNTFWMGRGGSITHTISGIDIAMWDILGQATGLSVGRLLGGRHRDRVQPYCSLLMDMPERMEAVIAPHRAAGFRAFKIGWGPFGRRGDAGLDRAIIDAARTAVGTDAQLLVDAGASDAYWPNGLKWAMNTAAMLADYDVGWFEEALPPDAIEDFIALRRMSPVPIAGGEVLTRRQSFAPWLVRGAFDIVQPDVTKVGGISEQRRIAWMARDFGIRYVGHGWNTAFGLAADLQLAAAMPDCTLVEYIGGSAYVDRLTTRPFALDAEGMLAIPDLPGLGVSPDPALLARYTPDPEKFFSAEGHHHHHH,soluble
8,MSLANFVHEGDLPDGVFADAEIIAIDSETMGLRLRRDPLCVVQLSAGDGDAHVVRLSRPDYDCPNLKALLTNPKVLKLFHFGRFDIAMFELHLGVVTAPVYCTKIASKLARTYTDRHGLKDVTRELLGVELSKVQQSSDWGAPSLSVDQVAYAASDVLHLHGLRLKLNAMLEREGRMALAQHAFDYLPHRASLDLAGWEEMDIFAHSEGHHHHHH,soluble
9,MSLEASVEGLDGPAATNVVNFLEPLDTRNISEARLDSDIRERTQRALRAFGYYSPQIETSYPDGMFAGDVVIAIDPGPRTHITQLDLGVDGAAGDDPAFRKALASIPLEEGDPLRHDRYDSAKTRLSTLALERGYFDAGFAQQRMEVRPWEASARLFLRMRSGPRYRFGDIRFAGSQIEEARLRRMLPFTKGDPYLAGQLAEYNQRLGQTNWFRGIAVRPRIGDERNVTRGGQWWQEATGRTPPLSSGAGLAAVRRLHGLQSTDVPVDVDLVPADRHKFETGIGYATDVGPRVQFSWEMPWLNDRGHSLSNSLYLSGPEQRFDGEYVMPLANPLRDSYRLSYGLRSLDNEDTQSLESSVELARRWEFDNDWVQELYFRTTYEDFTQADQDEQVLLLYPGISWTRTRTRQPNFPRWGDRQRLALEVSDPAWGSDARFLRARFDSQWIRTLGSDNRFVGRIGGGATATDTFDKIPPSLRFFAGGDQSVRGYSYESLSPENDDGELLGGQHMLTASAEYQRRVTGNWWGATFVDTGNAFNAWWPEELKTGAGVGVRWISPVGPVRFDIAHPFDNEEDAWRLHFAIGPEEGHHHHHH,not soluble
10,MADTTILDTTCSSTLAANVEFSHATDSAIGISLKNATITEAEGVPNLKETGYDCVRYMGTCNGGQIYLGRERKKLKDYVAIKKFAIDDVDDYAAIAKESSNLRLMHHPNIIELCECFVYERSIYQITPAMNLGSLFDIVFEYMKWGINEKSAAAITRQLLDALSYLHQRRYIHRDLKPKHILIDSSGNVKLSGFRFMIELNHHLDCVFEFDAHLQNQLYYLAPEVLAQNIHGYTSKSDIYMLGISICEAINGVMPFGELEPLEMLHRKLNGQVPRPVDMISLKDDQKMGLDISHRPQEHLTRRFSKEMHEFIANCLDYDPQQRGSASDLKSSAWLGSKIHKNLGPVDVRQELNLDYAHFDLSLWEQEPLIPMEPDQKYEIVFDYSPIS,not soluble
11,YVTNDLANSMKDRGTMLADSLRVDFAIINDPSKIPVSGTGPYTYTFYVKNIGKDSIAFSSNSIQVFIDGNIIPPANLTFTDVNGNSISSLDPGEVGAIQVTLGNALDPGYHRIQVVLENGKERVLIFKI,not soluble
12,MDQKRLTHLRQLEAESIHIIREVAAEFANPVMLYSIGKDSSVMLHLARKAFYPGTLPFPLLHVDTGWKFREMYAFRDRTANAYGCELLVHKNPEGVAMGINPFVHGSAKHTDIMKTEGLKQALNKYGFDAAFGGARRDEEKSRAKERIYSFRDRFHRWDPKNQRPELWRNYNGQINKGESIRVFPLSNWTEQDIWQYIWLENIDIVPLYLAAERPVLERDGMLMMVDDDRIDLQPGEVIKKRMVRFRTLGCWPLTGAVESHAQTLPEIIEEMLVSTTSERQGRMIDRDQAGSMELKKRQGYF,not soluble
13,MGSDKIHHHHHHMIDLDFRKLTIEECLKLSEEEREKLPQLSLETIKRLDPHVKAFISVRENVSVEKKGKFWGIPVAIKDNILTLGMRTTCASRILENYESVFDATVVKKMKEAGFVVVGKANLDEFAMGSSTERSAFFPTRNPWDLERVPGGSSGGSAAAVSAGMVVAALGSDTGGSVRQPASLCGVVGYKPTYGLVSRYGLVAFASSLDQIGPITKTVRDAAILMEIISGRDENDATTVNRKVDFLSEIEEGVSGMKFAVPEEIYEHDIEEGVSERFEEALKLLERLGAKVERVKIPHIKYSVATYYVIAPAEASSNLARFDGVKYGLRIKEKGLREMYMKTRNVGFGEEVRRRIMIGTFTLSAAYYEAYFNKAMKVRRKISDELNEVLSQYDAILTPTSPVTAFKIGEIKDPLTYYLMDIFTIPANLAGLPAISVPFGFSNNLPVGVQVIGRRFADGKVFRIARAIEKNSPYNENGMFPLPEVKA,not soluble
14,MNQVAPFYADHVGSILRTKGIKDAREKFQSGEITALELRKIENTEIKYIVEKQKEVGLKSITDGEFRRAWWHFDFLENLDGVEGYDAAGGIQFSKVQTKSHSVKITGPIDFTTHPFIEDFIFLKEAVGDNHVAKQTIPSPAMLHYRGDIEYQPYLDDAEKFANDLATAYQKAIQAFYDAGCRYLQLDDTSWSYLCSDEQREVVRQRGFDPETLQETYKNLINEAIKHKPADMVITMHICRGNFRSTWIAEGGYGPVAETLFGKLNIDGFFLEYDNERSGDFAPLKYVTRPDLKIVLGLITSKTGELEDEAAIKARIEEASEIVPLSQLRLSPQCGFASTEEGNILTEEEQWDKLRYVVRLANDIWGELEHHHHHH,soluble
15,MSLNISNVLFLLHQKFPDPLPDNPICTREETKLAGHLVNILKLAVDHDIDVEERDEVADETFSDWDSIEFEPNDGVIFSSPTELVFGGRVVTREEANTALDYYRSAKAGKRTLEAMRNRFRWITGRHDMDKLKLYEKDRDNFKESRRNLLKFLGERLYEEVKGRLDSGICLHDRDLKMIALDINKKETHVENFKACQTWITNWKRSYNIVSRKITKFVTRRYVRNKAATLQSAKDFVQGCRMDISSYGPEMIFNADQCGIQKELFGARSLAYLGEKSVERIVQSLSSLTHSFTFLPMIFMNGTLGPKAYMKIAEPTGHFPPSRPIPVCSNLEVHAGKSHIMTKDDMRVWLRNCVAHQQCPKKMLMIVDSWTSFKDHATIQSCMQNGVDLTIRNIPPGTTSLIQPLDVHFNGPWKTLIKNFTSYVMSFCPDYIIANRNNTIMMTSLLYHQVSAALFEPFLKYSWNKAGYTDSHDEFVTPADYCFGDVGEEECGFGGCSEFSFIRCARCNCQICFEHFVVDDQHFCPCP,not soluble
16,MKASYLETLDRIKDEHAEMSKHVNQQRSDIEKVALEKENMNRSYMTYAEVSNTLRSDLRKAEEINKRLQEFIMQSLAPQLSQDNQANCLAALEAFKTASPRENGNGAPALPPGFPPGAAGMLGMMPNMPFGMSPAMSQLFNQFASPHVNGGDGAGGSSGGASEAKKAKLEDPDDGELEIDVTNDDHPSTASNGGAANKNGRDSTNSVASSGASTPSIASNSRARQQQQPLAGLQGLEQMNFLAGFNPNLLRQASAAGGFNFLNDPHAQARLAAAIGQIGSRPAYSFKIVDGGVPTPTSFPPDAQKGPGIPTGLKKKMELNHGEVVCAATISRDNSRVYTGGKGCVKIWDVKESDISGATVVNRPPIASLDCLKENYIRSCKLFEDGNTLLIGGEASTVALWDLTTETKTLDLETDSQACYALAMSPDEKLLFACLADGNILIYDIHNKVKVGTLPGHQDGASCLDLSKDGTKLWSGGLDNSVRCWDLAQRKEVAKHDFASQVFSLGCCPNDEWVAVGMENNYVEVLSTTGKEKYQLTQHESCVLSLKFAHSGKFFISTGKDNALNAWRTPYGASLFQLKENSSVLSCDISFDDSLIVTGSGEKKATLYAVEY,not soluble
17,MATPEGQAEEKAVKLAAEEINAQGGILGYKVEVVVGDTKLDSNTATSEFRRLATVENADVIIGGFSSGVMTAMMETMAETKTLFLSDASSPAHAQKVEQNYEKYKYWFRVSQNNGSTFALDLADMVKFLRDSGYEVKKVYIIRDEHVWTDPVMAALKPLLEEMGVEIVKDVKIPRGYSEYEQLILEAESLNADLIMPILAISGTGDVLAKQWATLKPNLLLAGHDLAPIDPEFYEKTNGMANYEIFLADGGALVTAPPTEKCREFVEAYKAKYGHYPESHQAYGAYDAVYLYKMVVEMAAKNGEKDPFNPDVLVKYLEKFDASNPVKLTRTIAFYPNHDLMWGDDYVRNWISQWQDGKQYIIYPPSVANGELKLPPWIEK,not soluble
